Where a chain is given by its changes, count along the chain named. Like-named read-outs stand apart in the source and are kept apart here. Values belong to the binder of their own block, whether it stands above or below them.
Tests used:
[1] = target: T1, human CD3ε/δ-Fc fusion protein (soluble recombinant CD3ε/δ complex) (human, UniProt P04234 22-105); assay: SPR Biacore
T1 construct: also called huCD3ε/δ; huCD3; not shown: hinge, CH2, CH3 of human IgG with tag

[2] = target: T2, human CD123 Strep-II tagged Fc-fusion protein (human); assay: SPR Biacore
T2 construct: also called human CD123-Fc; recombinant CD123

[3] = target: T3, human CD123 (IL3RA) on cells (human, UniProt P26951 19-378); assay: cell-based or functional assay
[4] = target: T1, human CD3ε/δ-Fc fusion protein (soluble …); assay: SPR Biacore, CODV-Fab
Method: (§1) Binding affinities of anti-CD3 binding Fabs or CODV-Fabs were measured by surface plasmon resonance (SPR) using a Biacore3000 instrument (GE Healthcare). Assay buffer was HBS-EP (BR-1001-88, GE Healthcare). Capture of CD3ε/δ-Fc fusion proteins was achieved using the human antibody capture kit (GE Healthcare). […] The CD3εδ-Fc fusions proteins were captured at 10 μl/min to approx. 70 RU to yield Rmax values of 30 RU. Binding kinetics with the anti-CD3 Fabs or CODV-Fabs was measured at 30 μl/min for 240 sec. and 600 sec. for association and dissociation phase, respectively. Twofold dilutions of Fabs from 3 to 400 nM in assay buffer were used. All Fab concentrations were run in duplicate together with duplicate buffer blanks for double referencing. Regeneration of the capture surface was performed with a 1 min injection of 3M MgCl2 solution at 30 μl/min. For data analysis the BIAevaluation software v.4.1 (GE Healthcare) was used. Data were fit globally using a 1:1 Langmuir model with mass transfer.

[5] = target: T3, human CD123 (IL3RA) on cells; assay: cell-based or functional assay; remark: listed apart in the source
[6] = target: T1, human CD3ε/δ-Fc fusion protein (soluble …); assay: SPR Biacore, CODV-Fab on recombinant CD3ε/δ
Method: as §1

[7] = target: T3, human CD123 (IL3RA) on cells; assay: cell-based or functional assay; remark: listed apart in the source
[8] = target: T1, human CD3ε/δ-Fc fusion protein (soluble …); assay: SPR Biacore; remark: listed apart in the source
[9] = target: T2, human CD123 Strep-II tagged Fc-fusion …; assay: SPR Biacore; remark: listed apart in the source
[10] = target: T4, human CD3 (TCR complex) on primary human T cells or Jurkat cells (human, UniProt P07766 23-207); assay: cell-based or functional assay
[11] = target: T4, human CD3 (TCR complex) on primary …; assay: cell-based or functional assay; remark: listed apart in the source

T1 sequence (chain, as listed by the source mutant, chain 1 of 2): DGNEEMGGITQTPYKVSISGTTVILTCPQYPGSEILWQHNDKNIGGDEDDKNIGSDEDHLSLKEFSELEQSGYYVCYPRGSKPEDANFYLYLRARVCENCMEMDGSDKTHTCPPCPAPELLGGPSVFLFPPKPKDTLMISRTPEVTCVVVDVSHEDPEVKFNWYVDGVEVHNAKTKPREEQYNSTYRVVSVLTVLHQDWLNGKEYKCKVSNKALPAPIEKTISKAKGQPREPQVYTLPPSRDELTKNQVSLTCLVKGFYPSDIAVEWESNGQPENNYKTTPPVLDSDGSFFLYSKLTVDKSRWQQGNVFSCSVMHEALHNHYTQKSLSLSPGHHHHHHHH
T1 sequence (P04234 22-105, stated change not applied, chain 2 of 2): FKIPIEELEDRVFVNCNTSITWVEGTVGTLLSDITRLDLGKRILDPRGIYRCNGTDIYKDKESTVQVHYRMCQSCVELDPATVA
T4 sequence (P07766 23-207, one chain of several): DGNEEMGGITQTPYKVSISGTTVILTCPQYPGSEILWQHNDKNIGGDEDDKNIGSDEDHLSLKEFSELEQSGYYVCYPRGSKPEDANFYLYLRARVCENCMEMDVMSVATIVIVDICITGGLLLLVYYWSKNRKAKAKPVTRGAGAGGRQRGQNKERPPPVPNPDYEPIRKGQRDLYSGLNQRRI
T2 sequence (chain, as listed by the source limits assumed): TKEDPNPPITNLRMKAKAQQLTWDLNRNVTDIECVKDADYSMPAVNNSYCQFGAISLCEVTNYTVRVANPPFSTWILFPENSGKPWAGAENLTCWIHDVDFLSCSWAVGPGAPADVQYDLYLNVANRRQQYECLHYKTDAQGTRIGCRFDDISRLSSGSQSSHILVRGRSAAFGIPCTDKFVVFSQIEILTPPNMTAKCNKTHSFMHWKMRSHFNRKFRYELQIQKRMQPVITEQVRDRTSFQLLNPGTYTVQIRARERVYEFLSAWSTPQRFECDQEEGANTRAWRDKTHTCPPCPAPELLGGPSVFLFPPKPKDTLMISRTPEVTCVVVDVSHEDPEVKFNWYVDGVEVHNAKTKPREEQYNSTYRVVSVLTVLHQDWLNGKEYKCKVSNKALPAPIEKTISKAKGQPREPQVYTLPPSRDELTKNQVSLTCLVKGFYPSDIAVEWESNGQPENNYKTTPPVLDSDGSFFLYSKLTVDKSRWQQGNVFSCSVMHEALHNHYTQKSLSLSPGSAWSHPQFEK
T3 sequence (P26951 19-378): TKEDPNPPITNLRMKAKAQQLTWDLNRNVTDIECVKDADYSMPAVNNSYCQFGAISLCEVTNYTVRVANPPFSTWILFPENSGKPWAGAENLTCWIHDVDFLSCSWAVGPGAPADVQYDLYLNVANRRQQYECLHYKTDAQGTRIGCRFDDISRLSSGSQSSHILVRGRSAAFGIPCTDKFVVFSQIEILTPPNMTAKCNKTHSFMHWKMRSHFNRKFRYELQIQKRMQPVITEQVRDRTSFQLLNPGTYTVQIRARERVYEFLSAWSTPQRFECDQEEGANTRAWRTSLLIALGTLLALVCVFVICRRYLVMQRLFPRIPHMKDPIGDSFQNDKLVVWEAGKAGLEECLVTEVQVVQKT

Kd [1]: 5 nM
Kd [2]: 0.6 nM
B1: CODV-Fab hz20G6x7G3 antibody-like binding protein (bispecific antibody)
light: DFVMTQSPSSLTVTAGEKVTMSCKSSQSLLNSGNQKNYLTWYLQKPGQPPKLLIYWASTRESGVPDRFTGSGSGTDFTLTISSVQAEDLAVYYCQNDYSYPYTFGGGTKLEIKGQPKAAPDIVMTQTPLSLSVTPGQPASISCKSSQSLVHNNGNTYLSWYLQKPGQSPQSLIYKVSNRFSGVPDRFSGSGSGTDFTLKISRVEAEDVGVYYCGQGTQYPFTFGSGTKVEIKTKGPSRTVAAPSVFIFPPSDEQLKSGTASVVCLLNNFYPREAKVQWKVDNALQSGNSQESVTEQDSKDSTYSLSSTLTLSKADYEKHKVYACEVTHQGLSSPVTKSFNRGEC
heavy: QVQLVESGGGVVQPGRSLRLSCAASGFTFTKAWMHWVRQAPGKQLEWVAQIKDKSNSYATYYADSVKGRFTISRDDSKNTLYLQMNSLRAEDTAVYYCRGVYYALSPFDYWGQGTLVTVSSSEVQLQQSGPELVKPGASVKMSCKASGYTFTDYYMKWVKQSHGKSLEWIGDIIPSNGATFYNQKFKGKATLTVDRSSSTAYMHLNSLTSEDSAVYYCTRSHLLRASWFAYWGQGTLVTVSARTASTKGPSVFPLAPSSKSTSGGTAALGCLVKDYFPEPVTVSWNSGALTSGVHTFPAVLQSSGLYSLSSVVTVPSSSLGTQTYICNVNHKPSNTKVDKKVEPKSCDKTHTHHHHHH
notes: also called hz20G6 × 7G3 CODV-Fab
Cytotoxic assay (THP cells) EC50 [pM] [3]: 30.9 pM

Kd [1]: 5.4 nM
Kd [2]: 0.1 nM
B2: CODV-Fab 7G3xhz4B4 antibody-like binding protein (bispecific antibody)
light: DVVMTQTPVSLSVSVGGRVSISCRSSQSLVHDNGNTYLSWSLQKPGKSPKVLIYKVSNRFSGVSSRFTGSGSGTDFTLKISSVQPDDLGVYYCGQGTQYPFTFGSGTKLEIKGQPKAAPDFVMTQSPSSLTVTAGEKVTMSCKSSQSLLNSGNQKNYLTWYLQKPGQPPKLLIYWASTRESGVPDRFTGSGSGTDFTLTISSVQAEDLAVYYCQNDYSYPYTFGGGTKLEIKTKGPSRTVAAPSVFIFPPSDEQLKSGTASVVCLLNNFYPREAKVQWKVDNALQSGNSQESVTEQDSKDSTYSLSSTLTLSKADYEKHKVYACEVTHQGLSSPVTKSFNRGEC
heavy: EVQLQQSGPELVKPGASVKMSCKASGYTFTDYYMKWVKQSHGKSLEWIGDIIPSNGATFYNQKFKGKATLTVDRSSSTAYMHLNSLTSEDSAVYYCTRSHLLRASWFAYWGQGTLVTVSASQVQLVETGGGLVKPGQSLKLTCATSGFTFSNAWMHWVRQSPEKGLEWVAQIKARSNNYATYYAESVKGRFTISRDDSKSTIYLQMNSLTPEDTAIYYCRGTYYASKPFDYWGQGVMVTVSSRTASTKGPSVFPLAPSSKSTSGGTAALGCLVKDYFPEPVTVSWNSGALTSGVHTFPAVLQSSGLYSLSSVVTVPSSSLGTQTYICNVNHKPSNTKVDKKVEPKSCDKTHTHHHHHH
notes: also called 7G3 × hz4B4 CODV-Fab
Cytotoxic assay (THP cells) EC50 [pM] [3]: 26.7 pM

Kd [4]: 17 nM
koff [4]: 0.0044 s⁻¹
kon [4]: 270000 M⁻¹ s⁻¹
B3: CODV-Fab 7G3x4B4 antibody-like binding protein (bispecific antibody)
light: B2 light with V15L, R18Q, K44R, K47Q, K50Q, V63T, S65D, S82R, Q84E
heavy: B2 heavy with Q122E, G131R, K134Q, Q137R, G165Q, T210K, P211E
notes: also called 7G3 × 4B4
Activity EC50 [ng/ml], cytotoxic assay on THP-1 with human T cells [5]: 11 ng/mL

Kd [6]: 26.3 nM
koff [6]: 0.000571 s⁻¹
kon [6]: 21700 M⁻¹ s⁻¹
Kd [4]: 7 nM
koff [4]: 0.00051 s⁻¹
kon [4]: 72000 M⁻¹ s⁻¹
B4: CODV-Fab 7G3x20G6 antibody-like binding protein (bispecific antibody)
light: DVVMTQTPVSLSVSLGGQVSISCRSSQSLVHNNGNTYLSWYLQKPGQSPQSLIYKVSNRFSGFSDRFSGSGSGTDFTLKISRVDPDDLGVYYCGQGTQYPFTFGSGTKLEIKGQPKAAPDFVMTQSPSSLTVTAGEKVTMSCKSSQSLLNSGNQKNYLTWYLQKPGQPPKLLIYWASTRESGVPDRFTGSGSGTDFTLTISSVQAEDLAVYYCQNDYSYPYTFGGGTKLEIKTKGPSRTVAAPSVFIFPPSDEQLKSGTASVVCLLNNFYPREAKVQWKVDNALQSGNSQESVTEQDSKDSTYSLSSTLTLSKADYEKHKVYACEVTHQGLSSPVTKSFNRGEC
heavy: EVQLQQSGPELVKPGASVKMSCKASGYTFTDYYMKWVKQSHGKSLEWIGDIIPSNGATFYNQKFKGKATLTVDRSSSTAYMHLNSLTSEDSAVYYCTRSHLLRASWFAYWGQGTLVTVSASEVQLVETGGSLVQPGKSLKLTCATSGFTFTKAWMHWVRQSPEKQLEWVAQIKDKSNSYATYYAESVKGRFTISRDDSKSTIYLQMNSLKEEDTAIYYCRGVYYALSPFDYWGQGVMVTVSSRTASTKGPSVFPLAPSSKSTSGGTAALGCLVKDYFPEPVTVSWNSGALTSGVHTFPAVLQSSGLYSLSSVVTVPSSSLGTQTYICNVNHKPSNTKVDKKVEPKSCDKTHTHHHHHH
notes: formula I and formula II chains; hinge and His-tag added C-terminally to formula II; also called 7G3 × 20G6
Activity EC50 [ng/ml], cytotoxic assay on THP-1 with human T cells [5]: 18 ng/mL

Kd [8]: 9 nM
Kd [9]: 0.2 nM
T cell activation with THP-1 target cells, CD4+ T cells (% CD69+ cells) EC50 (pM) [10]: 1.4 pM
T cell activation with THP-1 target cells, CD8+ T cells (% CD69+ cells) EC50 (pM) [10]: 3.1 pM
Jurkat-NFAT-Luc reporter, no target cells, activation at Cmax in relation to max. activation in assay with target cells (%) [11]: 0.2%
Jurkat-NFAT-Luc reporter, with THP1 cells, EC50 (pM) [11]: 561 pM
B5: CODV-Fab hz20G6xhz7G3 antibody-like binding protein (bispecific antibody)
light: DIVMTQSPDSLAVSLGERATINCESSQSLLNSGNQKNYLTWYQQKPGQPPKPLIYWASTRESGVPDRFSGSGSGTDFTLTISSLQAEDVAVYYCQNDYSYPYTFGQGTKLEIKGGSGSSGSGGDIVMTQTPLSLSVTPGQPASISCKSSQSLVHNNANTYLSWYLQKPGQSPQSLIYKVSNRFSGVPDRFSGSGSGTDFTLKISRVEAEDVGVYYCGQGTQYPFTFGSGTKVEIKGGSGSSGSGGRTVAAPSVFIFPPSDEQLKSGTASVVCLLNNFYPREAKVQWKVDNALQSGNSQESVTEQDSKDSTYSLSSTLTLSKADYEKHKVYACEVTHQGLSSPVTKSFNRGEC
heavy: QVQLVESGGGVVQPGRSLRLSCAASGFTFTKAWMHWVRQAPGKQLEWVAQIKDKSNSYATYYADSVKGRFTISRDDSKNTLYLQMNSLRAEDTAVYYCRGVYYALSPFDYWGQGTLVTVSSEVQLVQSGAEVKKPGESLKISCKGSGYSFTDYYMKWARQMPGKGLEWMGDIIPSSGATFYNQKFKGQVTISADKSISTTYLQWSSLKASDTAMYYCARSHLLRASWFAYWGQGTMVTVSSASTKGPSVFPLAPSSKSTSGGTAALGCLVKDYFPEPVTVSWNSGALTSGVHTFPAVLQSSGLYSLSSVVTVPSSSLGTQTYICNVNHKPSNTKVDKKVEPKSCDKTHTHHHHHH
notes: also called hz20G6xhz7G3 CODV-Fab
Cytotoxic assay (THP cells) EC50 [pM] [7]: 2.1 pM

Kd [8]: 15 nM
T cell activation with THP-1 target cells, CD4+ T cells (% CD69+ cells) EC50 (pM) [10]: 1 pM
T cell activation with THP-1 target cells, CD8+ T cells (% CD69+ cells) EC50 (pM) [10]: 3.3 pM
Jurkat-NFAT-Luc reporter, no target cells, activation at Cmax in relation to max. activation in assay with target cells (%) [11]: 0.4%
Jurkat-NFAT-Luc reporter, with THP1 cells, EC50 (pM) [11]: 320 pM
B6: CODV-Fab-OL1 hz20G6xhz7G3 antibody-like binding protein (bispecific antibody, human IgG1, kappa, L234A L235A)
light: B5 light
heavy: not shown
chain: GSDKTHTCPPCPAPEAAGGPSVFLFPPKPKDTLMISRTPEVTCVVVDVSHEDPEVKFNWYVDGVEVHNAKTKPREEQYNSTYRVVSVLTVLHQDWLNGKEYKCKVSNKALPAPIEKTISKAKGQPREPQVCTLPPSRDELTKNQVSLSCAVKGFYPSDIAVEWESNGQPENNYKTTPPVLDSDGSFFLVSKLTVDKSRWQQGNVFSCSVMHEALHNHYTQKSLSLSPG
notes: formula I chain, formula III chain and Fc stump (Fc3); also called hz20G6xhz7G3 CODV-Fab-OL1; hz20G6xhz7G3 CODV-OL1

Reference: patent publication US20210292423A1 (published 2021)
